Experimental data from patent publication US20200024330A1.

Legend:
Experiment in all cases: cell-based or functional assay
[1] = molecular target: HIV-1 Env of isolate 92UG031 (HIV-1)
[2] = molecular target: HIV-1 Env of isolate 92WR026 (HIV-1)
[3] = molecular target: HIV-1 Env of isolate 93MW959 (HIV-1)
[4] = molecular target: HIV-1 Env of isolate 93WR029 (HIV-1)
[5] = molecular target: HIV-1 Env of isolate MGRM-A-013 (clade A), on pseudovirus (HIV-1)
[6] = molecular target: HIV-1 Env of isolate MGRM-AE-007 (CRF01_AE), on pseudovirus (HIV-1)
[7] = molecular target: HIV-1 Env of isolate MGRM-C-006 (HIV-1)
[8] = molecular target: HIV-1 Env of isolate MGRM-C-009 (HIV-1)
[9] = molecular target: HIV-1 Env of isolate MGRM-C-012 (HIV-1)
[10] = molecular target: HIV-1 Env of isolate MGRM-C-022 (HIV-1)
[11] = molecular target: HIV-1 Env of isolate MGRM-Chronic-B-008 (HIV-1)
[12] = molecular target: HIV-1 Env of isolate MGRM-D-018 (HIV-1)
[13] = molecular target: HIV-1 Env of isolate MGRM-D-022 (HIV-1)
[14] = molecular target: HIV-1 Env of isolate MGRM-F1-015 (subtype F), on pseudovirus (HIV-1)
[15] = molecular target: HIV-1 Env of isolate PVO.4 (HIV-1)
[16] = molecular target: HIV-1 JR-CSF Env N197A (HIV-1 (isolate JR-CSF)) (UniProt P20871)
[17] = molecular target: HIV-1 JR-CSF Env Y177A (HIV-1 (isolate JR-CSF)) (UniProt P20871)
[18] = molecular target: HIV-1 Env of isolate MG RM-AG-011 (HIV-1)
[19] = molecular target: HIV-1 Env of isolate MG RM-D-008 (subtype D) (HIV-1)
[20] = molecular target: HIV-1 Env of isolate MG RM-D-011 (subtype D) (HIV-1)
[21] = molecular target: HIV-1 Env of isolate MG RM-D-014 (subtype D) (HIV-1)
[22] = molecular target: HIV-1 Env of isolate MG RM-D-016 (subtype D) (HIV-1)
[23] = molecular target: HIV-1 Env of isolate MGRM-C-001 (pseudovirus) (HIV-1 isolate MGRM-C-001, subtype C)
[24] = molecular target: HIV-1 Env of isolate MGRM-C-002 (pseudovirus) (HIV-1 isolate MGRM-C-002, subtype C)
[25] = molecular target: HIV-1 Env of isolate MGRM-C-025 (pseudovirus) (HIV-1 isolate MGRM-C-025, subtype C)
[26] = molecular target: HIV-1 Env of isolate MGRM-F1-013 (HIV-1)
[27] = molecular target: HIV-1 Env of isolate MGRM-F1-014 (HIV-1)
[28] = molecular target: HIV-1 Env of isolate MGRM-F1-021 (HIV-1)
[29] = molecular target: HIV-1 MGRM-C-026 envelope glycoprotein (Env) on pseudovirus (HIV-1)
[30] = molecular target: HIV-1 MGRM-Chronic-B-023 Env (pseudovirus) (HIV-1)

| Substance | neutralization IC50 [1] [µg/mL] | neutralization IC50 [2] [µg/mL] | IC50 [3] [µg/mL] | neutralization IC50 [4] [µg/mL] | IC50, single-round pseudovirus neutralization [5] [µg/mL] | IC50, single-round pseudovirus neutralization [6] [µg/mL] | IC50 [7] [µg/mL] | IC50 [8] [µg/mL] | IC50 [9] [µg/mL] | IC50 [10] [µg/mL] | IC50 [11] [µg/mL] | IC50 [12] [µg/mL] | IC50 [13] [µg/mL] | IC50, pseudovirus neutralization [14] [µg/mL] | IC50 [15] [µg/mL] | Fold IC50 increase relative to wild-type [16] [fold] | Fold IC50 increase relative to wild-type [17] [fold] | neutralization IC50 [18] [µg/mL] | IC50 (µg/mL), pseudovirus neutralization [19] [µg/mL] | IC50 (ug/ml), neutralizing activity [29] [µg/mL] | further results |
| --- | --- | --- | --- | --- | --- | --- | --- | --- | --- | --- | --- | --- | --- | --- | --- | --- | --- | --- | --- | --- | --- |
| 5136_H01 (PGT-131) (antibody) | > 50 | 0.041 | > 50 | > 50 | > 50 | 0.026 | 0.611 | > 50 | > 50 | 0.78 | > 50 | 0.148 | > 50 | > 50 | > 50 | 1.1 | 5.3 |  |  |  |  |
| 5114_A19 (PGT-128) (antibody) | > 50 | 0.01 | 0.045 | > 50 | 0.008 | > 50 | 0.014 | > 50 | 0.058 | 0.042 | 0.143 | 0.008 | > 50 | > 50 | 0.005 | 1 | 1.4 |  |  |  |  |
| 5343_B08 (PGT-135) (antibody) | > 50 | 0.068 | > 50 | > 50 | > 50 | > 50 | > 50 | > 50 | 0.017 | > 50 | > 50 | 0.039 | > 50 | 1.11 | > 50 | 0.3 | 0.3 |  |  |  |  |
| 5123_A06 (PGT-125) (antibody) |  |  |  |  |  |  |  |  |  |  |  |  |  |  |  | 1 | 1.1 | > 50 | > 50 | 0.0106 | IC50 (µg/mL), pseudovirus neutralization [20]: 0.008 µg/mL; IC50 (µg/mL), pseudovirus neutralization [21]: > 50 µg/mL; IC50 (µg/mL), pseudovirus neutralization [22]: 0.12 µg/mL; IC50 (µg/mL) neutralization [23]: > 50 µg/mL; IC50 (µg/mL) neutralization [24]: 0.008 µg/mL; IC50 (µg/mL) neutralization [25]: 42.5 µg/mL; IC50 [26]: > 50 µg/mL; IC50 [27]: > 50 µg/mL; IC50 [28]: > 50 µg/mL; neutralization IC50 [29]: 0.0106 µg/mL; neutralization IC80 [29]: 0.035 µg/mL; neutralization IC90 [29]: 0.0705 µg/mL; neutralization IC95 [29]: 0.134 µg/mL; IC50, pseudovirus neutralization [30]: > 50 µg/mL |
| 5141_B17 (PGT-126) (antibody) |  |  |  |  |  |  |  |  |  |  |  |  |  |  |  | 1.1 | 0.9 | 24.5 | 43.1 | 0.0076 | IC50 (µg/mL), pseudovirus neutralization [20]: 0.009 µg/mL; IC50 (µg/mL), pseudovirus neutralization [21]: 0.03 µg/mL; IC50 (µg/mL), pseudovirus neutralization [22]: > 50 µg/mL; IC50 (µg/mL) neutralization [23]: > 50 µg/mL; IC50 (µg/mL) neutralization [24]: 0.011 µg/mL; IC50 (µg/mL) neutralization [25]: 0.786 µg/mL; IC50 [26]: > 50 µg/mL; IC50 [27]: > 50 µg/mL; IC50 [28]: > 50 µg/mL; IC50, pseudovirus neutralization [30]: > 50 µg/mL |
| 5329_C19 (PGT-136) (antibody) | > 50 | > 50 | > 50 | > 50 | > 50 | > 50 | > 50 | > 50 | > 50 | > 50 | > 50 | > 50 | > 50 | > 50 | > 50 |  |  |  |  |  |  |
| 4858_P08 (PGT-123) (antibody) |  |  |  |  |  |  |  |  |  |  |  |  |  |  |  | 1.4 | 2.4 | > 50 | > 50 | 0.0031 | IC50 (µg/mL), pseudovirus neutralization [20]: 0.012 µg/mL; IC50 (µg/mL), pseudovirus neutralization [21]: 0.009 µg/mL; IC50 (µg/mL), pseudovirus neutralization [22]: > 50 µg/mL; IC50 (µg/mL) neutralization [23]: 42.4 µg/mL; IC50 (µg/mL) neutralization [24]: 0.01 µg/mL; IC50 (µg/mL) neutralization [25]: 13.3 µg/mL; IC50 [26]: 0.08 µg/mL; IC50 [27]: 0.111 µg/mL; IC50 [28]: 0.307 µg/mL; IC50, pseudovirus neutralization [29]: 0.0031 µg/mL; IC80, pseudovirus neutralization [29]: 0.0094 µg/mL; IC90 (pseudovirus neutralization) [29]: 0.0183 µg/mL; IC95, pseudovirus neutralization [29]: 0.0338 µg/mL; IC50, pseudovirus neutralization [30]: 0.055 µg/mL |
| 5345_I01 (PGT-137) (antibody) | > 50 | 0.092 | > 50 | > 50 | 49.2 | > 50 | > 50 | > 50 | 0.102 | > 50 | > 50 | 15.1 | > 50 | > 50 |  |  |  |  |  |  |  |
| 5147_N06 (PGT-130) (antibody) | > 50 | 0.037 | 8.55 | 34.3 | > 50 | 0.083 | 0.095 | > 50 | > 50 | 0.127 | 5.18 | 0.049 | > 50 | > 50 | 5.17 | 1.2 | 3.6 |  |  | 0.0173 |  |
